Measurements taken from patent US20250197870A1, “RECOMBINANT E. COLI STRAIN PRODUCING 1,3-BUTANEDIOL FROM GLUCOSE AND METHOD FOR PRODUCING 1,3-BUTANEDIOL USING SAME” (ActivON Co.,Ltd., priority 2022, published 2025).

B1: YahK: E. coli-derived alcohol dehydrogenase, 3-hydroxybutyraldehyde reductase, SEQ ID NO: 36 gene product (protein, listed as Escherichia coli)
chain: MKIKAVGAYSAKQPLEPMDITRREPGPNDVKIEIAYCGVCHSDLHQVRSEWAGTVYPCVPGHEIVGRVVAVGDQVEKYAPGDLVGVGCIVDSCKHCEECEDGLENYCDHMTGTYNSPTPDEPGHTLGGYSQQIVVHERYVLRIRHPQEQLAAVAPLLCAGITTYSPLRHWQAGPGKKVGVVGIGGLGHMGIKLAHAMGAHVVAFTTSEAKREAAKALGADEVVNSRNADEMAAHLKSFDFILNTVAAPHNLDDFTTLLKRDGTMTLVGAPATPHKSPEVFNLIMKRRAIAGSMIGGIPETQEMLDFCAEHGIVADIEMIRADQINEAYERMLRGDVKYRFVIDNRTLTD
B2: YgjB (Ahr): E. coli-derived alcohol dehydrogenase, 3-hydroxybutyraldehyde reductase, SEQ ID NO: 35 gene product (protein, listed as Escherichia coli)
chain: MSMIKSYAAKEAGGELEVYEYDPGELRPQDVEVQVDYCGICHSDLSMIDNEWGFSQYPLVAGHEVIGRVVALGSAAQDKGLQVGQRVGIGWTARSCGHCDACISGNQINCEQGAVPTIMNRGGFAEKLRADWQWVIPLPENIDIESAGPLLCGGITVFKPLLMHHITATSRVGVIGIGGLGHIAIKLLHAMGCEVTAFSSNPAKEQEVLAMGADKVVNSRDPQALKALAGQFDLIINTVNVSLDWQPYFEALTYGGNFHTVGAVLTPLSVPAFTLIAGDRSVSGSATGTPYELRKLMRFAARSKVAPTTELFPMSKINDAIQHVRDGKARYRVVLKADF
B3: YqhD: 3-hydroxybutyraldehyde reductase (E. coli), SEQ ID NO: 34 gene product (protein, UniProt Q46856 1-387, looked up)
NADPH-dependent aldehyde …: MNNFNLHTPTRILFGKGAIAGLREQIPHDARVLITYGGGSVKKTGVLDQVLDALKGMDVLEFGGIEPNPAYETLMNAVKLVREQKVTFLLAVGGGSVLDGTKFIAAAANYPENIDPWHILQTGGKEIKSAIPMGCVLTLPATGSESNAGAVISRKTTGDKQAFHSAHVQPVFAVLDPVYTYTLPPRQVANGVVDAFVHTVEQYVTKPVDAKIQDRFAEGILLTLIEDGPKALKEPENYDVRANVMWAATQALNGLIGAGVPQDWATHMLGHELTAMHGLDHAQTLAIVLPALWNEKRDTKRAKLLQYAERVWNITEGSDDERIDAAIAATRNFFEQLGVPTHLSDYGLDGSSIPALLKKLEEHGMTQLGENHDITLDVSRRIYEAAR
B4: DhaT: alcohol dehydrogenase from K. pneumoniae (protein, UniProt Q59477 1-387, looked up)
1,3-propanediol dehydrogenase: MSYRMFDYLVPNVNFFGPNAISVVGERCQLLGGKKALLVTDKGLRAIKDGAVDKTLHYLREAGIEVAIFDGVEPNPKDTNVRDGLAVFRREQCDIIVTVGGGSPHDCGKGIGIAATHEGDLYQYAGIETLTNPLPPIVAVNTTAGTASEVTRHCVLTNTETKVKFVIVSWRNLPSVSINDPLLMIGKPAALTAATGMDALTHAVEAYISKDANPVTDAAAMQAIRLIARNLRQAVALGSNLQARENMAYASLLAGMAFNNANLGYVHAMAHQLGGLYDMPHGVANAVLLPHVARYNLIANPEKFADIAELMGENITGLSTLDAAEKAIAAITRLSMDIGIPQHLRDLGVKEADFPYMAEMALKDGNAFSNPRKGNEQEIAAIFRQAF

test: Activity of purely isolated 3-HBA reductases (alcohol dehydrogenases) for 3-HBA; format: biochemical; settings: pure enzyme, substrate 3-HBA
Procedure: The activity of alcohol dehydrogenase was determined by photometric monitoring of the increase/decrease in NADP+/NADPH at 340 nm. The reaction mixture included 50 mM Tris-HCl at pH 7.0. For measurement of forward reactions, preparation was followed to include 0.15 mM NADPH and 5 mM 3-hydroxybutyraldehyde as substrates at 37° C. For reverse reactions, 2 mM NADP+ and 30 mM 1,3-BDO were used as cofactors and substrates, respectively. For the reduction reaction, 1 unit of enzymatic activity was defined as the amount of enzyme required to oxidize 1 μmol of NAD(P)H to NADP+ for 1 minute. For oxidation reactions, 1 unit of enzymatic activity was defined as the amount of enzyme required to reduce 1 μmol of NAD(P)+ to NAD(P)H for 1 minute.
Previously, 4 types of enzymes such as Cs_bdh, Ec_yqhD, Kp_dhaT, and Lr_pduQ were tested with 3-HBA reductase (FIG. 3), of which yqhD showing the best performance was used. However, the constant accumulation of 3-HBA and 3-HB indicates a lack of activity in these enzymes. Four aldoketoreductases (AKRs) were tested to improve the conversion from 3-HBA to 1,3-BDO. Two of the selected AKRs were derived from P. denitrificans, one derived from P. putida, and the other from P. aeruginosa. In addition, ygjB and yahK, also known as E. coli-derived alcohol dehydrogenase (ADH), were tested. Thereamong, enzymes coded by ygjB have been reported to have high activity for various aldehydes, especially high activity for butyraldehyde (kcat/Km, 221 sec-1 mM-1), while the enzyme coded by yahK has also been reported to have high activity for various aldehydes, especially high activity for butyraldehyde (kcat/Km, 19.8 sec-1 mM-1). Several ADH genes were cloned into E. coli, mass-produced, isolated and purified, and then tested for the activity of pure enzymes for 3-HBA.

| Molecule | Purely isolated enzymatic activity [U/mg protein] |
| --- | --- |
| B1 | 6.98 |
| B2 | 238 |
| B3 | 0.06 |
| B4 | 0.44 |
